Assays:
[1] = target: 17β-HSD type 1 (Homo sapiens) (UniProt P14061); details: cited from earlier work
[2] = test system: NC(=O)c1ccc[n+]([C@@H]2O[C@H](COP(=O)(O)OP(=O)(O)OC[C@H]3O[C@@H](n4cnc5c(N)ncnc54)[C@H](OP(=O)(O)O)[C@@H]3O)[C@@H](O)[C@H]2O)c1; test: purified protein; type: biochemical, Curvularia lunata; details: oxidation of 4-estrene-17β-ol-3-one (100 μM), 100 mM phosphate pH 8.0, 25°C, 1% DMF, varied: cofactor
[3] = test system: NC(=O)C1=CN([C@@H]2O[C@H](COP(=O)(O)OP(=O)(O)OC[C@H]3O[C@@H](n4cnc5c(N)ncnc54)[C@H](OP(=O)(O)O)[C@@H]3O)[C@@H](O)[C@H]2O)C=CC1; test: purified protein; type: biochemical, Curvularia lunata; details: reduction of 4-estrene-3,17-dione (100 μM), 100 mM phosphate pH 8.0, 25°C, 1% DMF, varied: cofactor
[4] = target: 17β-HSDcl-His111Ala (Cochliobolus lunatus); test: SEC; gel filtration on TSK G4000 SWxl, 100 mM phosphate buffer with 150 mM NaCl, pH 7.0; about 40 μg protein in 100 μl injected, 1.0 ml/min; mass by calibration standards
17β-HSDcl [5] = target: T1, 17β-HSDcl (Curvularia lunata, UniProt O93874, H111L); test: intrinsic fluorescence quenching titration; type: binding
T1 construct: gene 17HSDcl; GST fusion (pGex-17β-HSDcl) from E. coli JM107, GST cut off with thrombin; 28 kDa subunit; wild type and H111A homodimeric, H111L and R129D monomeric
Excerpt: (§1) intrinsic fluorescence quenching titration on 17β-HSDcl

17β-HSDcl [6] = target: T2, 17β-HSDcl (Curvularia lunata, UniProt O93874, R129D); test: intrinsic fluorescence quenching titration; type: binding
T2 construct: gene 17HSDcl; GST fusion (pGex-17β-HSDcl) from E. coli JM107, GST cut off with thrombin; 28 kDa subunit; wild type and H111A homodimeric, H111L and R129D monomeric
Excerpt: as §1

17β-HSDcl [7] = target: T3, 17β-HSDcl (Curvularia lunata, UniProt O93874, H111A); test: intrinsic fluorescence quenching titration; type: binding
T3 construct: gene 17HSDcl; GST fusion (pGex-17β-HSDcl) from E. coli JM107, GST cut off with thrombin; 28 kDa subunit; wild type and H111A homodimeric, H111L and R129D monomeric
Excerpt: as §1

[8] = target: the molecule itself; test: SEC; gel filtration on TSK G4000 SWxl, 100 mM phosphate buffer with 150 mM NaCl, pH 7.0; about 40 μg protein in 100 μl injected, 1.0 ml/min; mass by calibration standards

Molecule: 17β-HSD type 1 (from UniProt P14061)
- Kd [1]: < 5 pM

Molecule: 17β-HSDcl (Curvularia lunata; H111A)
- Km [2]: 4.6 µM
- kcat [2]: 0.9 s⁻¹
- kcat/Km [2]: 190000 M⁻¹ s⁻¹
- Km [3]: 50.6 µM
- kcat [3]: 2.4 s⁻¹
- kcat/Km [3]: 47000 M⁻¹ s⁻¹

Molecule: 17β-HSDcl-His111Ala (enzyme)
- stoichiometry N [4]: 2

Molecule: NC(=O)c1ccc[n+]([C@@H]2O[C@H](COP(=O)(O)OP(=O)(O)OC[C@H]3O[C@@H](n4cnc5c(N)ncnc54)[C@H](OP(=O)(O)O)[C@@H]3O)[C@@H](O)[C@H]2O)c1 [NADP^+]
- Kd (17β-HSDcl [5]): 19.9 µM
- Kd (17β-HSDcl [6]): 12.8 µM
- Kd (17β-HSDcl [7]): 5.8 µM

B1: 17β-hydroxysteroid dehydrogenase from Cochliobolus lunatus, wild type (enzyme, UniProt O93874 1-270, looked up)
chain: MPHVENASETYIPGRLDGKVALVTGSGRGIGAAVAVHLGRLGAKVVVNYANSTKDAEKVVSEIKALGSDAIAIKADIRQVPEIVKLFDQAVAHFGHLDIAVSNSGVVSFGHLKDVTEEEFDRVFSLNTRGQFFVAREAYRHLTEGGRIVLTSSNTSKDFSVPKHSLYSGSKGAVDSFVRIFSKDCGDKKITVNAVAPGGTVTDMFHEVSHHYIPNGTSYTAEQRQQMAAHASPLHRNGWPQDVANVVGFLVSKEGEWVNGKVLTLDGGAA
notes: expected molecular mass 28 kDa; also called 17β-HSDcl; fungal 17β-HSD; source: E. coli JM107, GST fusion, purified (Glutathione Sepharose, thrombin cleavage)
- stoichiometry N [8]: 2

Reference: PMC1326212, “Dimerization and enzymatic activity of fungal 17β-hydroxysteroid dehydrogenase from the short-chain dehydrogenase/reductase superfamily” (BMC Biochemistry, 2005)
